Data from publication PMC8423587 (Nature chemical biology, 2019).

Target: T1, ELIC 7′C pore mutant (L238C in the cysteine-free background C300S/C313S) (Erwinia (as in the name Erwinia …))
T1 chain: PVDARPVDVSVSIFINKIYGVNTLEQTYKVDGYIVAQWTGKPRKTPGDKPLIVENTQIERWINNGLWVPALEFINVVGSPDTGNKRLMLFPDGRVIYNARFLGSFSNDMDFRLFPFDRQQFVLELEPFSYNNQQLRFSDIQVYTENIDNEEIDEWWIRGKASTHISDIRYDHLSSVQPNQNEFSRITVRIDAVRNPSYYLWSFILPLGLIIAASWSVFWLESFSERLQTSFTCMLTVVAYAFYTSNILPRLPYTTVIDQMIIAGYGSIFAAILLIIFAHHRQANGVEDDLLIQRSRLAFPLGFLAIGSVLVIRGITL
Assay: crystal structure

B1: nanobody 72 (VHH)
VHH: QVQLQESGGGLVQAGGSLRLSCAASGRIFSTNVMGWFRQAPGKEREFVATVGRIGGSTVYADFVKGRFTLSRDNAKNMVYLQMNSLKPEDTAVYYCGARIGGSDRLAPENYGYWGQGTQVTVSS
stoichiometry N: 5 Nb72 per ELIC pentamer
